Data reported in the supplement of paper PMC10567573.

B1: TRIM63 (parent)
chain: QEKKLSFIEALIQQYQEQLDKSTK
B2: MFF (parent)
chain: DDLTVVDAASLRRQIIKLNRRLQL

Variants of: B1
Assay: protein stability index of a GFP-peptide fusion (GPS, HEK-293T) (PSI 1-6); higher = more stable
Conditions: c terminus: a fixed tail appended
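Further: lentivirally expressed fusions sorted by FACS into six bins by GFP to DsRed ratio, PSI derived from sequencing read proportions per bin multiplied by bin number.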

Protein stability index: each site, then its substitutions
Y15: V 2.09 | W 1
Q16: A 2.5 | C 2 | E 3.09 | F 2.07 | G 3.81 | H 2.57 | I 1.87 | K 4.03 | L 1.49 | M 1.48 | N 3.05 | R 2.38 | S 2.41 | T 2.62 | V 2.7 | W 1.74 | Y 2.32
E17: A 2 | C 2.47 | D 3 | F 2.25 | G 2.21 | H 2.11 | I 2.14 | K 2.16 | L 1.8 | M 2.08 | N 1.81 | Q 2.65 | R 1.45 | S 2.26 | T 2.68 | V 1.75 | W 1.3 | Y 2.84
Q18: A 2.37 | C 2.34 | D 3.54 | E 2.51 | F 1.98 | G 1.95 | H 1.79 | I 2.08 | K 2.58 | L 2.25 | M 1.81 | N 3.28 | P 3.31 | R 2.51 | S 2.71 | T 2.93 | V 2.3 | W 3 | Y 2.49
L19: A 4.3 | D 3.77 | E 3.41 | F 2.38 | H 3.54 | I 3.19 | K 4.08 | M 3.18 | P 3.26 | Q 3.21 | R 2.91 | W 2.32
D20: A 2.5 | C 1.69 | F 1.66 | G 2.13 | H 1.77 | I 1.31 | L 1.72 | M 2.98 | N 2.08 | P 2.46 | Q 1.92 | R 1.77 | T 2.47 | V 1.2 | W 1.83 | Y 1.48
K21: A 2.92 | C 2.29 | D 3.76 | E 3.26 | F 2.54 | G 2.02 | H 2.23 | I 2.86 | L 2.17 | M 2.27 | P 1.99 | Q 3 | S 2.78 | T 1.75 | V 3.04 | W 1.63 | Y 2.1
S22: A 2.23 | C 2.26 | D 3.1 | E 3.21 | F 3.09 | G 2.26 | H 2.7 | I 2.74 | K 2.52 | M 2.65 | N 2.89 | P 3.1 | Q 2.43 | R 1.98 | T 2.75 | V 2.45 | W 1.92
T23: A 2.75 | C 2.72 | D 3.33 | E 2.57 | G 2.77 | H 2.53 | I 1.84 | K 2.49 | L 1.51 | M 1.92 | N 2.31 | P 2.24 | Q 2.89 | R 2.66 | S 2.7 | V 2.67 | W 1.09 | Y 2.26
K24: A 2.25 | C 2.99 | D 3.66 | E 3.51 | F 1.71 | G 2.71 | H 2.95 | I 1.95 | L 2.47 | M 2.32 | N 2.79 | P 3.33 | Q 2.68 | R 1.84 | S 2.61 | T 2.67 | V 2.31 | W 1.67 | Y 1.36

Variants of: B2
Assay: as above
Conditions: c terminus: a fixed tail appended

Protein stability index of substitutions, site by site:
D1: A 2.08 | C 2.04 | E 1.67 | F 2.42 | G 2.17 | H 1.84 | I 2.32 | K 1.84 | L 1.61 | M 1.98 | N 2.1 | P 2.05 | Q 3.2 | R 2.45 | S 2.28 | T 1.78 | V 2.39 | W 1.88 | Y 2.81
D2: A 2.37 | C 2.73 | E 1.72 | F 2.48 | G 2.56 | H 2.02 | I 1.85 | K 2.3 | L 1.24 | M 2.09 | N 2.22 | P 2.45 | Q 2.32 | R 1.82 | S 2.24 | T 2.31 | V 1.13 | W 2.86 | Y 2
L3: A 2.59 | C 2.33 | D 2.58 | E 2.56 | F 2.73 | G 2.58 | H 2.73 | I 1.8 | K 2.34 | M 3.06 | N 2.09 | P 2.48 | Q 2.45 | R 2.58 | S 2.57 | T 2.2 | V 2.8 | W 1.48 | Y 1.96
T4: A 1.91 | C 1.86 | D 2.6 | E 2.21 | F 2.08 | H 1.7 | I 2.2 | K 2.15 | L 2.62 | M 2.24 | N 2.3 | P 1.56 | Q 2.32 | R 2.18 | S 2.43 | V 1.96 | Y 1.43
V5: A 2.44 | C 1.72 | D 2.37 | E 2.38 | F 1.72 | H 2.69 | I 2.66 | K 2.47 | L 1.69 | M 2.05 | N 2.61 | P 2.42 | Q 2.26 | R 1.7 | S 2.5 | T 2.69 | W 1.93 | Y 2.17
V6: A 2.91 | C 2.41 | D 2.3 | E 2.08 | F 2.29 | G 3.34 | H 2.71 | I 1.55 | K 2.35 | L 2.37 | M 1.99 | N 2.4 | P 4.09 | Q 1.9 | R 2.91 | S 1.64 | T 2.34 | W 2.4 | Y 1.77
D7: A 2.29 | C 1.4 | E 2.04 | F 1.85 | G 2.71 | H 3.12 | K 1.89 | M 2.19 | N 1.89 | P 2.71 | Q 2.17 | R 2.93 | S 2.24 | T 1.64 | W 1.92 | Y 1.61
A8: C 1.93 | D 2.8 | E 2.63 | F 2.35 | G 3.13 | H 1.95 | I 1.61 | K 3.29 | L 2.58 | M 3.09 | N 2.63 | P 2.42 | Q 2.38 | R 2.57 | S 2.49 | T 1.69 | V 1.9 | W 2.17 | Y 1.3
A9: C 2.03 | D 2.02 | E 2.13 | F 1.58 | G 2.11 | H 2.52 | I 2.79 | K 2.31 | L 2.08 | M 1.84 | N 2.42 | P 2.12 | Q 2.22 | R 4.18 | S 2.2 | T 1.82 | W 1.84 | Y 2.48
S10: A 1.7 | C 1.48 | D 2.05 | E 2.13 | F 2.32 | G 2.3 | H 2.02 | I 1.72 | K 1.79 | L 1.24 | M 1.42 | N 2.28 | P 2.89 | Q 2.28 | R 2.83
